From patent US6323177, “Interaction of reelin with very low density lipoprotein (VLDL) receptor for screening and therapies” (St. Jude Children's Research Hospital, dated 2001) come the findings set out here.

The target in this assay is Reelin (full length, expressed from pCr1 in 293T cells, conditioned medium) (mouse). Description: cell binding assay: 293T cells with or without VLDL receptor incubated with Reelin conditioned medium, washed, lysed, Western blot with G10. As to the method: Reelin-VLDL receptor binding assay. 293T cells transfected with or without the VLDL receptor are washed in phosphate buffer saline (PBS) containing divalent cations and distributed into Eppendorf tubes (approximately 10^6 cells/sample). For Reelin binding assays, cells are incubated with conditioned medium containing 20–100 ng of Reelin for 30 min to 2 h at 4° C. or room temperature. Cells are then washed again with PBS and solubilized in […] of TxB buffer (150 mM NaCl, 50 mM Tris-Cl pH7.5, 1% Triton-X, 1 mM EDTA) supplemented with 0.1 mg/ml Aprotinin, with 0.1 mg/m Leupeptin, 20 mM Sodium Fluoride, and 1 mM Sodium Orthovanadate. Cell extracts are clarified by centrifugation at 13,000×g for 10 min at 4° C. and subjected to Western blot analysis to reveal the presence of Reelin retained by the VLDL receptor.
Western blot analysis. Ten µl of cell extract per lane are analyzed by SDS-PAGE on 4–12% minigels (Novex). Proteins are transferred to nitrocellulose membranes and blocked in 3% milk in Tris buffer saline (TBS) for 1 h at room temperature. Proteins bound to the membranes are incubated at 4° C. overnight in antibody diluted in 0.3% milk-TBS supplemented with 0.1% Tween (TBST). Ascites fluids containing the mouse monoclonal G10 antibody (de Bergeyck et al., J. Neurosci. Methods, 82:17–24, 1998) are used at a 1:1000 dilution to detect Reelin. […]

B1: human very low density lipoprotein (VLDL) receptor, expressed on transfected 293T cells (receptor)
chain: not shown
Consider B1, for which the binding result is “binds”.
